Assay results taken from article PMC2849673 (Biochemistry, 2010).

Molecular target: the molecule itself
Test: crystal structure

B1: E-2-(acetamidomethylene)succinate (E-2AMS) hydrolase (enzyme, Mesorhizobium loti MAFF303099, UniProt Q988D4 1-278, looked up)
chain: MDMAADIASDHFISRRVDIGRITLNVREKGSGPLMLFFHGITSNSAVFEPLMIRLSDRFTTIAVDQRGHGLSDKPETGYEANDYADDIAGLIRTLARGHAILVGHSLGARNSVTAAAKYPDLVRSVVAIDFTPYIETEALDALEARVNAGSQLFEDIKAVEAYLAGRYPNIPADAIRIRAESGYQPVDGGLRPLASSAAMAQTARGLRSDLVPAYRDVTKPVLIVRGESSKLVSAAALAKTSRLRPDLPVVVVPGADHYVNEVSPEITLKAITNFIDA
stoichiometry N: 2
